In PMC3201864:

Experiments:
[1] = target: T1, CELF1 RRM1 (Xenopus, UniProt O57406 1-101); assay: NMR titration
[2] = target: T1, CELF1 RRM1; assay: gel filtration
[3] = target: CELF1 RRM2 (Xenopus, UniProt O57406 108-187); assay: gel filtration
[4] = target: T2, CELF1 T187 (RRM1-RRM2) (Xenopus, UniProt O57406 1-187); assay: gel filtration
[5] = target: T2, CELF1 T187 (RRM1-RRM2); assay: ITC
[6] = target: T2, CELF1 T187 (RRM1-RRM2); assay: ESI-MS
[7] = target: T2, CELF1 T187 (RRM1-RRM2); assay: gel filtration; remark: listed apart in the source
[8] = target: T2, CELF1 T187 (RRM1-RRM2); assay: gel filtration; remark: listed apart in the source
[9] = target: T1, CELF1 RRM1; assay: ESI-MS
[10] = target: T2, CELF1 T187 (RRM1-RRM2); assay: gel filtration; remark: listed apart in the source
[11] = target: T2, CELF1 T187 (RRM1-RRM2); assay: EMSA
[12] = target: T1, CELF1 RRM1; assay: gel filtration; remark: listed apart in the source
[13] = target: T2, CELF1 T187 (RRM1-RRM2); assay: EMSA; remark: listed apart in the source
[14] = target: T2, CELF1 T187 (RRM1-RRM2); assay: NMR titration

T1 sequence (O57406 1-101): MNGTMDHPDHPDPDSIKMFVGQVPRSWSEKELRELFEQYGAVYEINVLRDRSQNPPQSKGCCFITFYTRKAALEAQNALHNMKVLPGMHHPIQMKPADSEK
T2 sequence (O57406 1-187): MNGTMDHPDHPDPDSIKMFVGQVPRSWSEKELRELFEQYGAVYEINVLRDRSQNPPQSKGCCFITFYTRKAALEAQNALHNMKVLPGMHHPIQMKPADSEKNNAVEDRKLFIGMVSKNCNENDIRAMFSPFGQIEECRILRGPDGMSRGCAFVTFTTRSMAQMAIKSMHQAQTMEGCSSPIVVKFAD
CELF1 RRM2, sequence (O57406 108-187): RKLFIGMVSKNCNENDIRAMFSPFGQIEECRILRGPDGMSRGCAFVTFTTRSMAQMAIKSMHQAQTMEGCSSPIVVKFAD

B1: CUG2 (ssRNA)
RNA: CUGCUG
- binding result [1]: binds

B2: ARE7 (ssRNA)
RNA: UAUUUAU
- binding result [2]: no binding
- binding result [3]: no binding
- binding result [4]: no binding

B3: UGU (ssRNA)
RNA: UGU
- Kd [5]: 64 ± 2 µM

B4: EDEN11 (GRE) (ssRNA)
RNA: UGUUUGUUUGU
- binding result [6]: binds

B5: UG15 (GU15 in text) (ssRNA)
RNA: UGUGUGUGUGUGUGU
- binding result [7]: binds

B6: EDEN15 (ssRNA)
RNA: UGUUUGUUUGUUUGU
- binding result [8]: binds

B7: EDEN9 (ssRNA)
RNA: UUGUUUGUU
- binding result [9]: binds

B8: CUG15 (ssRNA)
RNA: CUGCUGCUGCUGCUG
- binding result [10]: binds

B9: ARE15 (ssRNA)
RNA: UAUUUAUUUAUUUAU
- binding result [11]: no binding

B10: EDEN7m (ssRNA)
RNA: UGUUUAU
- binding result [12]: binds

B11: GUCU15 (ssRNA)
RNA: UGUCUGUCUGUCUGU
- binding result [13]: binds

B12: EDEN3U (x=3) (ssRNA)
RNA: UGUUUUUGU
- binding result [14]: binds
